From article PMC12386978 (2025)

B1: NLuc-mCRY1 (wild-type) [mouse (printed as mCRY1)] / CLuc-BMAL1 [not stated] (parent complex)
chain 1: MGVNAVHWFRKGLRLHDNPALKECIQGADTIRCVYILDPWFAGSSNVGINRWRFLLQCLEDLDANLRKLNSRLFVIRGQPADVFPRLFKEWNITKLSIEYDSEPFGKERDAAIKKLATEAGVEVIVRISHTLYDLDKIIELNGGQPPLTYKRFQTLVSKMEPLEMPADTITSDVIGKCMTPLSDDHDEKYGVPSLEELGFDTDGLSSAVWPGGETEALTRLERHLERKAWVANFERPRMNANSLLASPTGLSPYLRFGCLSCRLFYFKLTDLYKKVKKNSSPPLSLYGQLLWREFFYTAATNNPRFDKMEGNPICVQIPWDKNPEALAKWAEGRTGFPWIDAIMTQLRQEGWIHHLARHAVACFLTRGDLWISWEEGMKVFEELLLDADWSINAGSWMWLSCSSFFQQFFHCYCPVGFGRRTDPNGDYIRRYLPVLRGFPAKYIYDPWNAPEGIQKVAKCLIGVNYPKPMVNHAEASRLNIERMKQIYQQLSRYRGLGLLASVPSNSNGNGGLMGYAPGENVPSCSSSGNGGLMGYAPGENVPSCSGGNCSQGSGILHYAHGDSQQTHSLKQGRSSAGTGLSSGKRPSQEEDAQSVGPKVQRQSSN
chain 2: not shown

Variants of: B1
Assay: split-luciferase complementation assay; HEK293T cells, n = 3; read off a plot

| Variant | response |
| --- | --- |
| chain 1 K151Q | ~3200 |
| chain 1 K151R | ~3900 |
